± gives the standard error. This sample holds only a part of the variants without activity.
B1: glmS ribozyme (parent)
chain: AUAAAAGCGCCAGAACUACAGAAAUGUAGUUGACGAGGAGGAGGUUUAUCGAAUUUUCGGCGGAUGCCUCCAAA

What was measured:
Settings in all cases: with glucosamine-6-phosphate
[1] = variants of: B1; assay: self-cleavage kobs at 40 uM GlcN6P; higher = faster cleavage; RNA array
Outline: (§1)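 In situ transcription by E. coli RNA polymerase produced barcoded ribozyme variants on sequenced MiSeq chips, and a hybridised Cy3 probe tracked them at 37 °C. Glucosamine-6-phosphate was flowed in at 40 μM to 10 mM in HEPES/KCl/Mg(OAc)2 buffer. kcat and KM were taken from weighted Michaelis–Menten fits of kobs values from exponential decay fits.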

[2] = variants of: B1; assay: self-cleavage kobs at 640 uM GlcN6P; higher = faster cleavage; RNA array
Outline: as §1

[3] = variants of: B1; assay: self-cleavage kobs at 2500 uM GlcN6P; higher = faster cleavage; RNA array
Outline: as §1

[4] = variants of: B1; assay: self-cleavage kobs at 10000 uM GlcN6P; higher = faster cleavage; RNA array
Outline: as §1

[5] = variants of: B1; assay: self-cleavage kobs at 160 uM GlcN6P; higher = faster cleavage; RNA array
Outline: as §1

Row | Variant | self-cleavage kobs at 40 uM GlcN6P [1] [s⁻¹] | self-cleavage kobs at 640 uM GlcN6P [2] [s⁻¹] | self-cleavage kobs at 2500 uM GlcN6P [3] [s⁻¹] | self-cleavage kobs at 10000 uM GlcN6P [4] [s⁻¹] | self-cleavage kobs at 160 uM GlcN6P [5] [s⁻¹]
1 | A15G U31G U69C | 4.45e-05 ± 1.7e-05 | – | – | – | –
2 | A15G G35C | < 1e-05 | < 1e-05 | < 1e-05 | – | –
3 | A14G U47G C58G C71U | 4.07e-05 ± 2e-05 | – | – | 9.43e-05 ± 1.6e-05 | –
4 | G29A G59U G63A A64U | < 1e-05 | – | – | < 1e-05 | –
5 | A14G U55G | 0.00161 ± 0.00014 | 0.00984 ± 0.0012 | 0.00953 ± 0.0023 | 0.0589 ± 0.011 | 0.00404 ± 0.00073
6 | C16G A53G C67A | 2.96e-05 ± 1.3e-05 | – | – | 0.000212 ± 5.9e-05 | –
7 | G29C U30C | < 1e-05 | < 1e-05 | – | – | –
8 | G13C A39G A64U | < 1e-05 | – | < 1e-05 | – | –
9 | G29U A48C G63U | < 1e-05 | – | – | < 1e-05 | –
10 | C16G A48C | < 1e-05 | < 1e-05 | – | 4.28e-05 ± 1.7e-05 | < 1e-05
11 | U31C C50G C70U | 7.5e-05 ± 2.8e-05 | 7.86e-05 ± 1.6e-05 | 4.19e-05 ± 1.2e-05 | 4.29e-05 ± 1.3e-05 | 7.9e-05 ± 1.5e-05
12 | A14C U55A U56G | 0.002 ± 0.00048 | 0.0195 ± 0.0041 | 0.0295 ± 0.013 | – | –
13 | U30A U57G U65G | < 1e-05 | – | – | – | –
14 | G29C C50G C61A U65C | 7.48e-05 ± 2.1e-05 | – | – | – | –
15 | A15C A36U | < 1e-05 | – | – | < 1e-05 | –
16 | A15G C50A A64G | < 1e-05 | – | – | – | –
17 | A15C U47G G51A U56C | < 1e-05 | – | < 1e-05 | < 1e-05 | –
18 | A15C G29A G60A | < 1e-05 | – | – | – | –
19 | G13A U46G G59U C70U | < 1e-05 | – | < 1e-05 | – | –
20 | G13C C34A | < 1e-05 | < 1e-05 | – | < 1e-05 | –
21 | U30G G43C | < 1e-05 | – | < 1e-05 | < 1e-05 | –
22 | G13A C50G C68G | 7.03e-05 ± 1.5e-05 | – | 0.000125 ± 2.6e-05 | 9.04e-05 ± 1.9e-05 | –
23 | A14G U31C G41C G63A | < 1e-05 | – | – | < 1e-05 | –
24 | A12U U57C C61A | < 1e-05 | < 1e-05 | – | < 1e-05 | –
25 | U30C U57C | < 1e-05 | < 1e-05 | – | – | –
26 | A15G C50G C70U | 5.62e-05 ± 1.6e-05 | 0.000167 ± 3.8e-05 | 0.00023 ± 5.9e-05 | 4.88e-05 ± 1.3e-05 | –

Row | Variant | self-cleavage kobs at 40 uM GlcN6P [1] [s⁻¹] | self-cleavage kobs at 640 uM GlcN6P [2] [s⁻¹] | self-cleavage kobs at 2500 uM GlcN6P [3] [s⁻¹] | self-cleavage kobs at 10000 uM GlcN6P [4] [s⁻¹] | self-cleavage kobs at 160 uM GlcN6P [5] [s⁻¹]
27 | A12U U49A | < 1e-05 | – | – | – | < 1e-05
28 | A12U U65A C67A | 6.19e-05 ± 1.3e-05 | – | – | 0.000114 ± 2e-05 | –
29 | U30C A64C | < 1e-05 | < 1e-05 | – | < 1e-05 | –
30 | U30G U56G C58U U69C | < 1e-05 | – | – | – | –
31 | U30A A33G A48C C67A | < 1e-05 | – | – | < 1e-05 | –
32 | G29U U30C | < 1e-05 | < 1e-05 | < 1e-05 | – | –
33 | A12U U30G U56G | 0.000609 ± 0.00013 | – | – | 0.0339 ± 0.0098 | –
34 | A15U U30C G51C | < 1e-05 | – | – | – | –
35 | G13A G60U A64C | < 1e-05 | – | – | – | –
36 | A15C C34A G37U G41A | < 1e-05 | – | – | < 1e-05 | –
37 | G29U U45G G59C C67U | < 1e-05 | – | – | < 1e-05 | –
38 | A14G A53U U55G | 0.000607 ± 0.00013 | – | – | 0.036 ± 0.013 | –
39 | C16G G59C | < 1e-05 | < 1e-05 | < 1e-05 | < 1e-05 | < 1e-05
40 | A15G C16U A52U U57A G59U | < 1e-05 | – | – | < 1e-05 | < 1e-05
41 | C16A A42U G63U | < 1e-05 | < 1e-05 | < 1e-05 | – | –
42 | G29A G43A | < 1e-05 | < 1e-05 | < 1e-05 | – | < 1e-05
43 | G13C A36C C71G | < 1e-05 | < 1e-05 | – | – | –
44 | U30G G32C A39G U45C A52U G63A | < 1e-05 | < 1e-05 | < 1e-05 | < 1e-05 | –
45 | A14G C34U C50G C68G | 7.72e-05 ± 1.6e-05 | – | – | – | –
46 | A15U G59C A64C | < 1e-05 | – | – | – | –
47 | U30C A52C A64C | < 1e-05 | – | – | – | –
48 | A15G G43C | < 1e-05 | < 1e-05 | < 1e-05 | < 1e-05 | < 1e-05
49 | A15C A36C C71U | < 1e-05 | – | – | < 1e-05 | –
50 | U30G U45A C71U | 0.000183 ± 4.7e-05 | – | – | 0.00282 ± 0.0011 | –
51 | G29A A42C | < 1e-05 | < 1e-05 | – | < 1e-05 | < 1e-05
52 | A14C G29A A33U | < 1e-05 | – | < 1e-05 | – | < 1e-05

From the supplement of paper PMC7125110
